Measurements reported in patent US20200392225A1.

T1: rat NPR1, recombinant antigen (rat) (UniProt P18910)
T1 sequence: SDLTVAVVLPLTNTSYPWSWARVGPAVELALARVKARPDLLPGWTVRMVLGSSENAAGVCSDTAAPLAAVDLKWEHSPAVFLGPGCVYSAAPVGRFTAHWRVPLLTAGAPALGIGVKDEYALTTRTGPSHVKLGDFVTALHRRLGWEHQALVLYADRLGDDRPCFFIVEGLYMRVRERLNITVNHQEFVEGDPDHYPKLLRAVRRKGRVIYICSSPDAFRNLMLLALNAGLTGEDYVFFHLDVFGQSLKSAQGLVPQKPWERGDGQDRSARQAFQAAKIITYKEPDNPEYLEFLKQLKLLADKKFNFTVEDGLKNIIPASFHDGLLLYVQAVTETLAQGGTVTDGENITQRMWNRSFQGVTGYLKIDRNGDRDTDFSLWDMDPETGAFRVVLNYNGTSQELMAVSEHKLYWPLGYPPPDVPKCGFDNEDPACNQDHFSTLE

T2: human NPR3 (counter target) (human) (UniProt P17342)
T2 sequence (looked up): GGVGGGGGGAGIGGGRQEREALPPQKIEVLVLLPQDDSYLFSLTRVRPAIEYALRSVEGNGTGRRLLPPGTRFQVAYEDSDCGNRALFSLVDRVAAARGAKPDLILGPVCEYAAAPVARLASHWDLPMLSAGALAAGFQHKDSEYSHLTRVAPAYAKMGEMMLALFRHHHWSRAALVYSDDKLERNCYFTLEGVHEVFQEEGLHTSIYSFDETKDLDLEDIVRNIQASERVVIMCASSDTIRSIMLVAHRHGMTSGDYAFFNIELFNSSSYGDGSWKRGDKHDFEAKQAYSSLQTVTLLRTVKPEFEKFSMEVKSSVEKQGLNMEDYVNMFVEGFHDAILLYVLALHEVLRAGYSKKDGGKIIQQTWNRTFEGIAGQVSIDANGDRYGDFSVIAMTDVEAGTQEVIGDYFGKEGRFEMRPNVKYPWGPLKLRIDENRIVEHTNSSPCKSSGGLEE

T3: human NPR3 in the presence of ANP (human) (UniProt P17342)
T3 sequence (looked up): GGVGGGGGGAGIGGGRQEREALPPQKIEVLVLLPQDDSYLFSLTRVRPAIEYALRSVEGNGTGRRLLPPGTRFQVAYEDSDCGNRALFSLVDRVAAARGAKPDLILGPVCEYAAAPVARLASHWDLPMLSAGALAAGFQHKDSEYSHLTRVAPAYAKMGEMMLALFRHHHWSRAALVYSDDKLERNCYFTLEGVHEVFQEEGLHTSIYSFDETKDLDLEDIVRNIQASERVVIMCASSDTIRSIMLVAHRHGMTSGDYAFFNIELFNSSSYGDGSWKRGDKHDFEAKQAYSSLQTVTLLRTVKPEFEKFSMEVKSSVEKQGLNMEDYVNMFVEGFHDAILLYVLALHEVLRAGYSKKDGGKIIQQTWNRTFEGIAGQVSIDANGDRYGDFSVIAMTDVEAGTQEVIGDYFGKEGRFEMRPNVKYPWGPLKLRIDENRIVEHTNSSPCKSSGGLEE
T3 sequence (peptide, looked up): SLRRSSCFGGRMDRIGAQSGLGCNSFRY


Columns and labels:
[1] = biological target: T1, rat NPR1, recombinant antigen (rat); assay: ELISA, 1 uM IgG
[2] = biological target: T2, human NPR3 (counter target) (human); assay: ELISA, 1 uM IgG
[3] = biological target: human NPR1 W74R mutant in the presence of ANP (human) (UniProt P01160); assay: ELISA, 1 uM IgG, +100 nM ANP
[4] = biological target: T3, human NPR3 in the presence of ANP (human); assay: ELISA, 1 uM IgG, +100 nM ANP
[5] = biological target: human NPR1 W74R mutant in the presence of ANP (human) (UniProt P01160); assay: ELISA, IgG titrated on the antigen with 250 fold molar excess of ANP [cont.]
[6] = biological target: human NPR1 W74R mutant in the presence of ANP (human) (UniProt P01160); assay: ELISA, IgG titration, +100 nM ANP
[7] = biological target: human NPR1 expressed on CHO-K1 cells in the presence of ANP (human) (UniProt P01160); assay: flow cytometry, 2 uM IgG, +100 nM ANP

Binder	ELISA IgG binding at 1 uM IgG (unit not given) [1]	ELISA IgG binding at 1 uM IgG (unit not given) [2]	ELISA IgG binding at 1 uM IgG (unit not given) [3]	ELISA IgG binding at 1 uM IgG (unit not given) [4]	EC50 (read off the curve) [5] [nM]	EC50 [6] [nM]	flow cytometry S/BG [7] [S/BG]
WW06 IgG (WW06_LALA) (antibody, V domains shown) VH: QVQLVQSGAEVKKPGESLKISCKGSGYSFTSYWIAWVRQMPGKGLEWMGRIDPDNSYTRYSPSFQGQVTISADKSISTAYLQWSSLKASDTAMYYCARWLSPGYALGEQPAGMDHWGQGTLVTVSS VL: DIVLTQPPSVSGAPGQRVTISCTGSSSNIGAGYAVHWYQQLPGTAPKLLIYSNNKRPSGVPDRFSGSKSGTSASLAITGLQAEDEADYYCQSYDLQKSSRVFGGGTKLTVLG	–	–	–	–	–	0.8	1.1
YY05 IgG (YY05_LALA) (antibody, V domains shown) VH: EVQLVQSGAEVKKPGESLKISCKGSGYSFTSYWISWVRQMPGKGLEWMGIIYPGTSYTRYSPSFQGQVTISADKSISTAYLQWSSLKASDTAMYYCARGAVAGQLGFDHWGQGTLVTVSS VL: QSVLTQPPSVSGAPGQRVTISCTGSSSNIGAGYDVHWYQQLPGTAPKLLIYGNSNRPSGVPDRFSGSKSGTSASLAITGLQAEDEADYYCQSYYTSSHGPVFGGGTKLTVLG	–	7	23	4	–	–	–

Continued, values first:

ELISA IgG binding at 1 uM IgG (unit not given) [1]	ELISA IgG binding at 1 uM IgG (unit not given) [2]	ELISA IgG binding at 1 uM IgG (unit not given) [3]	ELISA IgG binding at 1 uM IgG (unit not given) [4]	EC50 (read off the curve) [5] [nM]	EC50 [6] [nM]	flow cytometry S/BG [7] [S/BG]	Binder
3	6	86	6	20	–	–	YY06 IgG (YY06_LALA) (antibody, V domains shown) VH: EVQLLESGGGLVQPGGSLRLSCAASGFTFSSYAISWVRQAPGKGLEWVSAISGSGGSTYYAESVKGRFTISRDNSKNTLYLQMNSLRAEDTAVYYCARPYLGDRRSYGFDHWGQGTLVTVSS VL: QSALTQPASVSGSPGQSITISCTGTSSDVGSYNLVSWYQQHPGKAPKLMIYEGSKRPSGVSNRFSGSKSGNTASLTISGLQAEDEADYYCSSYGFHIVVVVFGGGTKLTVLG
–	–	20	5	–	–	–	YY07 IgG (YY07_LALA) (antibody, V domains shown) VH: EVQLVQSGAEVKKPGESLKISCKGSGYSFTSYWISWVRQMPGKGLEWMGIIYPGTSYTRYSPSFQGQVTISADKSISTAYLQWSSLKASDTAMYYCARGSLPGLLGFDHWGQGTLVTVSS VL: QSVLTQPPSVSGAPGQRVTISCTGSSSNIGAGYDVHWYQQLPGTAPKLLIYGNSNRPNGVPDRFSGSKSGTSASLAITGLQAEDEADYYCQSYDSPTSSSVFGGGTKLTVLG
